Assay results: IntAct's records for PubMed 19879842
Where a chain is given by its changes, count along the chain named.

B1: Dual specificity tyrosine-phosphorylation-regulated kinase mbk-2 (Caenorhabditis elegans), Q9XTF3-2 (parent)
chain: MTLFEPSTSGNRMGYRGSSNSSSGVGSGGSGSLMTQSIGGPNKHLSASHSTLNTASTHDMMHSKIPKSPSNESLSRSHTSSSGGSQGGHNSNSGSNSGFRPEDAVQTFGAKLVPFEKNEIYNYTRVFFVGSHAKKQAGVIGGANNGGYDDENGSYQLVVHDHIAYRYEVLKVIGKGSFGQVIKAFDHKYQQYVALKLVRNEKRFHRQADEEIRILDHLRRQDSDGTHNIIHMLDYFNFRNHKCITFELLSINLYELIKRNKFQGFSLMLVRKFAYSMLLCLDLLQKNRLIHCDLKPENVLLKQQGRSGIKVIDFGSSCFDDQRIYTYIQSRFYRAPEVILGTKYGMPIDMWSLGCILAELLTGYPLLPGEDENDQLALIIELLGMPPPKSLETAKRARTFITSKGYPRYCTATSMPDGSVVLAGARSKRGKMRGPPASRSWSTALKNMGDELFVDFLKRCLDWDPETRMTPAQALKHKWLRRRLPNPPRDGLESMGGLADHEVCFIIF
partner: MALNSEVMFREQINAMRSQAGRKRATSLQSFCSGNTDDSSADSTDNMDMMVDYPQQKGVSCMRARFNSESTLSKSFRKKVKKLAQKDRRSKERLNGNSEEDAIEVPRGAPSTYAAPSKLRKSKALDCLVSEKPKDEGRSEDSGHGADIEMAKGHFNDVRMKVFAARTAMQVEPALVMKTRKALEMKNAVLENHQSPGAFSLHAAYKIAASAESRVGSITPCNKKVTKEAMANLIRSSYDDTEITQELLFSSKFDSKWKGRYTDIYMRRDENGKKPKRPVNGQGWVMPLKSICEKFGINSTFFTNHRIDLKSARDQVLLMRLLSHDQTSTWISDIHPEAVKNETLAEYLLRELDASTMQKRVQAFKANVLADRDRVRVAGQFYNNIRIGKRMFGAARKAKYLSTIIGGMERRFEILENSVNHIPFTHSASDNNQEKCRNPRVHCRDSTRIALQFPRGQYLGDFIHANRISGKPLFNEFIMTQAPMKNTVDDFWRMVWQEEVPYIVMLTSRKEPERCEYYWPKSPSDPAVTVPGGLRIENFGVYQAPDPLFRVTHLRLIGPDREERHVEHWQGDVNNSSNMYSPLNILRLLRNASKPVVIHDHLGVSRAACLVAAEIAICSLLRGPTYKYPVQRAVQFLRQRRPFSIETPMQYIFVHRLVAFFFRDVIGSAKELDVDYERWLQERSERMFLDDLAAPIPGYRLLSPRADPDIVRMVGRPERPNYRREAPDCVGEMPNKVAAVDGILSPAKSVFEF
B2: Dual specificity tyrosine-phosphorylation-regulated kinase mbk-2 (Caenorhabditis elegans), Q9XTF3-2 (parent)
chain: B1 chain
partner: B1 partner with S139R, D157N, S255T, L344M, R444K, A739T

Variants of: B1
Conditions: with egg5_caeel egg-5, O61789

Variant | effect of a mutation on the interaction
MTLFEPSTSGNRMGYRGSSNSSSGVGSGGSGSLMTQSIGGPNKHLSASHSTLNTASTHDMMHSKIPKSPSNESLSRSHTSSSGGSQGGHNSNSGSNSGFRPEDAVQTFGAKLVPFEKNEIYNYTRVFFVGSHAKKQAGVIGGANNGGYDDENGSYQLVVHDHIAYRYEVLKVIGKGSFGQVIKAFDHKYQQYVALKLVRNEKRFHRQADEEIRILDHLRRQDSDGTHNIIHMLDYFNFRNHKCITFELLSINLYELIKRNKFQGFSLMLVRKFAYSMLLCLDLLQKNRLIHCDLKPENVLLKQQGRSGIKVIDFGSSCFDDQRIFTFIQSRFYRAPEVILGTKYGMPIDMWSLGCILAELLTGYPLLPGEDENDQLALIIELLGMPPPKSLETAKRARTFITSKGYPRYCTATSMPDGSVVLAGARSKRGKMRGPPASRSWSTALKNMGDELFVDFLKRCLDWDPETRMTPAQALKHKWLRRRLPNPPRDGLESMGGLADHEVCFIIF [Y325F;Y327F] | decreasing interaction
MTLFEPSTSGNRMGYRGSSNSSSGVGSGGSGSLMTQSIGGPNKHLSASHSTLNTASTHDMMHSKIPKSPSNESLSRSHTSSSGGSQGGHNSNSGSNSGFRPEDAVQTFGAKLVPFEKNEIYNYTRVFFVGSHAKKQAGVIGGANNGGYDDENGSYQLVVHDHIAYRYEVLKVIGKGSFGQVIKAFDHKYQQYVALRLVRNEKRFHRQADEEIRILDHLRRQDSDGTHNIIHMLDYFNFRNHKCITFELLSINLYELIKRNKFQGFSLMLVRKFAYSMLLCLDLLQKNRLIHCDLKPENVLLKQQGRSGIKVIDFGSSCFDDQRIYTYIQSRFYRAPEVILGTKYGMPIDMWSLGCILAELLTGYPLLPGEDENDQLALIIELLGMPPPKSLETAKRARTFITSKGYPRYCTATSMPDGSVVLAGARSKRGKMRGPPASRSWSTALKNMGDELFVDFLKRCLDWDPETRMTPAQALKHKWLRRRLPNPPRDGLESMGGLADHEVCFIIF [K196R] | decreasing interaction

Variants of: B2
Conditions: with egg4_caeel egg-4, O01767

Variant | effect of a mutation on the interaction
MTLFEPSTSGNRMGYRGSSNSSSGVGSGGSGSLMTQSIGGPNKHLSASHSTLNTASTHDMMHSKIPKSPSNESLSRSHTSSSGGSQGGHNSNSGSNSGFRPEDAVQTFGAKLVPFEKNEIYNYTRVFFVGSHAKKQAGVIGGANNGGYDDENGSYQLVVHDHIAYRYEVLKVIGKGSFGQVIKAFDHKYQQYVALKLVRNEKRFHRQADEEIRILDHLRRQDSDGTHNIIHMLDYFNFRNHKCITFELLSINLYELIKRNKFQGFSLMLVRKFAYSMLLCLDLLQKNRLIHCDLKPENVLLKQQGRSGIKVIDFGSSCFDDQRIFTFIQSRFYRAPEVILGTKYGMPIDMWSLGCILAELLTGYPLLPGEDENDQLALIIELLGMPPPKSLETAKRARTFITSKGYPRYCTATSMPDGSVVLAGARSKRGKMRGPPASRSWSTALKNMGDELFVDFLKRCLDWDPETRMTPAQALKHKWLRRRLPNPPRDGLESMGGLADHEVCFIIF [Y325F;Y327F] | decreasing interaction
MTLFEPSTSGNRMGYRGSSNSSSGVGSGGSGSLMTQSIGGPNKHLSASHSTLNTASTHDMMHSKIPKSPSNESLSRSHTSSSGGSQGGHNSNSGSNSGFRPEDAVQTFGAKLVPFEKNEIYNYTRVFFVGSHAKKQAGVIGGANNGGYDDENGSYQLVVHDHIAYRYEVLKVIGKGSFGQVIKAFDHKYQQYVALRLVRNEKRFHRQADEEIRILDHLRRQDSDGTHNIIHMLDYFNFRNHKCITFELLSINLYELIKRNKFQGFSLMLVRKFAYSMLLCLDLLQKNRLIHCDLKPENVLLKQQGRSGIKVIDFGSSCFDDQRIYTYIQSRFYRAPEVILGTKYGMPIDMWSLGCILAELLTGYPLLPGEDENDQLALIIELLGMPPPKSLETAKRARTFITSKGYPRYCTATSMPDGSVVLAGARSKRGKMRGPPASRSWSTALKNMGDELFVDFLKRCLDWDPETRMTPAQALKHKWLRRRLPNPPRDGLESMGGLADHEVCFIIF [K196R] | decreasing interaction
